Values of other authors, collected in PMC5540906.
Where “and” joins values, the source holds several entries; their conditions need not be identical. Equal entries are not always repeated.

How the values were obtained:
[1] = target: DnaK (Thermus thermophilus) (UniProt Q72IK5)
[2] = target: ClpP tetradecamer (Escherichia coli) (UniProt P0A6G7); test: activity measurements
UniProt P0A6G7, sequence (P0A6G7 15-207): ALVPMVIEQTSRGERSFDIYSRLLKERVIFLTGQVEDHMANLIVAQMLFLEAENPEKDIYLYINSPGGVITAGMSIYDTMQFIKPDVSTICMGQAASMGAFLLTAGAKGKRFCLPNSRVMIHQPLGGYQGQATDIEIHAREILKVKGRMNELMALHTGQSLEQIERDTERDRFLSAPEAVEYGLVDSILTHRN

UniProt Q72IK5, sequence (Q72IK5 whole entry): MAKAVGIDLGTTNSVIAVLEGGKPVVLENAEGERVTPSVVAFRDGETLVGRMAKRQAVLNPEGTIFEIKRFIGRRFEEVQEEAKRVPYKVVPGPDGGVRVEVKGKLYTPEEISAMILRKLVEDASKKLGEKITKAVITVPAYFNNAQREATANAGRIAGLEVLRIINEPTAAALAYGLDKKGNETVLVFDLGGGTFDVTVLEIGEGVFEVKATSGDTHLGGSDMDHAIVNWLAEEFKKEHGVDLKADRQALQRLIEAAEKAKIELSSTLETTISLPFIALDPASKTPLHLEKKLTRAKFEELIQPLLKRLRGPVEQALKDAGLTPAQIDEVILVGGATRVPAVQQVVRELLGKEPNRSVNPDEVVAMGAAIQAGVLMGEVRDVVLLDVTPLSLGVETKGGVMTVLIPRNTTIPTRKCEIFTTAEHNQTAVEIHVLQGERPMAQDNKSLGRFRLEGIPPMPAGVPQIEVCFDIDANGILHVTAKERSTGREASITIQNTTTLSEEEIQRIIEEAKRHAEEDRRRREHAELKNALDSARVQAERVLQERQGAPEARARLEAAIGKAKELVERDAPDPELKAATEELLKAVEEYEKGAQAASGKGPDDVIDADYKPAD

| Kd [1] | Kd [2] | Substance |
| --- | --- | --- |
| 17 µM and 25 µM |  | ClpB (from UniProt Q72IK9) |
|  | 0.004 µM | ClpA hexamer (from UniProt P0ABH9) |
